Like-named read-outs stand apart in the source and are kept apart here. Bridge positions count the residues as written; N and C are the ends. Square brackets hold non-standard residues; d marks the D form. Ends that are not written are not given here. * marks the point of attachment. 5FAM = O=C1OC2(c3ccc(O)cc3Oc3cc(O)ccc32)c2ccc(C(=O)*)cc21; Ach = 2-aminocyclohexane-1-carboxylic acid; hArg = N=C(N)NCCCC[C@H](N)C(=O)O; Dap = NC[C@H](N)C(=O)O; Pentanoyl = CCCCC(=O)* Bounds are passed on as bounds.

In experiment [1] the target is T1, PCSK9Δhelix (human, UniProt Q8NBP7 31-152; Q8NBP7 168-692).
T1 construct: Made by TEV cleavage of human PCSK9 M1-Q692 with an engineered TEV site; The new N-terminus of the catalytic domain is S-A168; also called His-PCSK9Δhelix; PCSK9 lacking the P' helix
T1 sequence (Q8NBP7 31-152, stated change not applied, chain 1 of 2): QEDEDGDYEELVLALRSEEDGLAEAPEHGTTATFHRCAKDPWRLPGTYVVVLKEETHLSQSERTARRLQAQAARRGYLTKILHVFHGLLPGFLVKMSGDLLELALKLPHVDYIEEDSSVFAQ
T1 sequence (Q8NBP7 other isoform, or with tags, fused parts or gaps mutant, chain 2 of 2): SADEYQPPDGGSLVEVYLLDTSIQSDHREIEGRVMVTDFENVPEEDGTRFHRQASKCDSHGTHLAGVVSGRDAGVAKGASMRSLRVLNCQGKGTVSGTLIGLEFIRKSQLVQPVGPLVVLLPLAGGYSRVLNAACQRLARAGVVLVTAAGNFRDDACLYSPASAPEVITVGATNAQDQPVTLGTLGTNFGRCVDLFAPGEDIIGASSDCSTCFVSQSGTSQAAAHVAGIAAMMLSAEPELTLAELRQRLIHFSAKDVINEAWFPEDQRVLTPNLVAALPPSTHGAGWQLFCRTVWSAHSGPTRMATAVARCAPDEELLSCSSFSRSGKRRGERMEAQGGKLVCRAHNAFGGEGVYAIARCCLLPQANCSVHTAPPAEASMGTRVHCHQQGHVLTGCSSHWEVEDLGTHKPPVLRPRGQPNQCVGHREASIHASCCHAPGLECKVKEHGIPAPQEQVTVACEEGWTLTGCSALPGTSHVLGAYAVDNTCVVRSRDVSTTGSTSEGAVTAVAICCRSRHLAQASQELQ
As to the kind of experiment: TR-FRET competition; competitor Ab20 binding to His-PCSK9Δhelix.

Experiment [2] concerns the target T2, PCSK9 (proprotein convertase subtilisin/kexin type 9), His-tagged, full-length (human, UniProt Q8NBP7 31-692).
T2 construct: Captured by the His tag (SPR Methods 1 and 2), amine-coupled (Method 3), or His-tagged in TR-FRET; also called His-PCSK9
Put plainly: TR-FRET competition; competitor EGF(A)-Fc binding to His-PCSK9. (In general: TR-FRET usually uses a lanthanide donor and a delayed reading to cut background.)

For experiment [3], the target named is T2, PCSK9 (proprotein convertase …). Described as above. The source holds these as a separate data set.
The target of experiment [4] is T1, PCSK9Δhelix. As to the kind of experiment: SPR, Method 3 (SensiQ Pioneer FE, target amine-coupled, gradient injection). Background: SPR reads the build-up and loss of mass on a sensor chip optically.
Experiment [5] deals with T2, PCSK9 (proprotein convertase …). Described as above.
Experiment [6] addresses T1, PCSK9Δhelix. As to the kind of experiment: TR-FRET competition; competitor Ab20 binding to His-PCSK9Δhelix. The source holds these as a separate data set.
Experiment [7] has as its target T2, PCSK9 (proprotein convertase …). Put plainly: TR-FRET competition; competitor EGF(A)-Fc binding to His-PCSK9. The source holds these as a separate data set.
Experiment [8] deals with T3, proprotein convertase subtilisin/kexin type 9 (PCSK9) (human, UniProt Q8NBP7 31-692).
T3 construct: His-tagged full-length PCSK9 in TR-FRET and SPR, biotinylated in phage ELISA; secreted protein is autoprocessed (prodomain plus catalytic/CRD chain starting at S153); also called rec.PCSK9; His-PCSK9
T3 sequence (Q8NBP7 other isoform, or with tags, fused parts or gaps limits assumed): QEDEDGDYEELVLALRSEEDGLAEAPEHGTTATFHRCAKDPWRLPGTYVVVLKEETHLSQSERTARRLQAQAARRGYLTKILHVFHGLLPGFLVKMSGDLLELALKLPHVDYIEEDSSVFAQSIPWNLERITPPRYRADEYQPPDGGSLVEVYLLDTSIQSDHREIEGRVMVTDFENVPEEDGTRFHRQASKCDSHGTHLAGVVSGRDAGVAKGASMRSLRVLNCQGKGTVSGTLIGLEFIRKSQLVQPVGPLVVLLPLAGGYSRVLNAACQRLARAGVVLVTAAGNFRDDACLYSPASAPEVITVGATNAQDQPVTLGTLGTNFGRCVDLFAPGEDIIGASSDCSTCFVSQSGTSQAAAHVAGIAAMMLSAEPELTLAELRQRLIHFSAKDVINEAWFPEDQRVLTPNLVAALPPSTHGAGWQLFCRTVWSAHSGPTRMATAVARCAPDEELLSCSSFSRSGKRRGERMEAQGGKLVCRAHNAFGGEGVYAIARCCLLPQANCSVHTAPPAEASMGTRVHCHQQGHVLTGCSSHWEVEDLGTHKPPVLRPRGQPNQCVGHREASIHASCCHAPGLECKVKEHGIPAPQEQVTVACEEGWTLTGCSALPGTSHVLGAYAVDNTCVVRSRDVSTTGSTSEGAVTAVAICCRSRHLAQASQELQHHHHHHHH
As to the kind of experiment: phage spot ELISA. Background: ELISA stands for enzyme-linked immunosorbent assay.

Experiment [9] deals with T4, PCSK9Δhelix (human, Chemically biotinylated in the phage ELISAs; the site is not given.).
T4 construct: construct M1-Q692 with engineered TEV site, cleaved by TEV; also called His-PCSK9Δhelix; open groove PCSK9Δhelix
T4 sequence (prodomain, as listed by the source mutant limits assumed, chain 1 of 2): as the sequence (Q8NBP7 31-152, stated change not applied, chain 1 of 2) above
T4 sequence (chain, as listed by the source mutant limits assumed, chain 2 of 2): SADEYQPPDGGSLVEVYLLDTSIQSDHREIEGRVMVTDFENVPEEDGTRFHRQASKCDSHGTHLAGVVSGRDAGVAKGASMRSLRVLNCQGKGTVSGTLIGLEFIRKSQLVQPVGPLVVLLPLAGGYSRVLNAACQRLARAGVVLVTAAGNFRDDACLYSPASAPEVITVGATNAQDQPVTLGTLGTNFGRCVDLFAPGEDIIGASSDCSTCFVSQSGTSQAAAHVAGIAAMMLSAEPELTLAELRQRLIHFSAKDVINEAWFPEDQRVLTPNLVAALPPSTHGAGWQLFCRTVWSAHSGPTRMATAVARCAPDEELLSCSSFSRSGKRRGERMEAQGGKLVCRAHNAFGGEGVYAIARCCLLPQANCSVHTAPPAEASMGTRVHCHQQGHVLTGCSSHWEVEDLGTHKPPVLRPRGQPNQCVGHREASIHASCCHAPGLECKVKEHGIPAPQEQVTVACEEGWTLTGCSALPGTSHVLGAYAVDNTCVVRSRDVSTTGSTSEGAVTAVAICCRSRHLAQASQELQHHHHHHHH
As to the kind of experiment: phage spot ELISA.

T2 sequence (Q8NBP7 31-692 limits assumed): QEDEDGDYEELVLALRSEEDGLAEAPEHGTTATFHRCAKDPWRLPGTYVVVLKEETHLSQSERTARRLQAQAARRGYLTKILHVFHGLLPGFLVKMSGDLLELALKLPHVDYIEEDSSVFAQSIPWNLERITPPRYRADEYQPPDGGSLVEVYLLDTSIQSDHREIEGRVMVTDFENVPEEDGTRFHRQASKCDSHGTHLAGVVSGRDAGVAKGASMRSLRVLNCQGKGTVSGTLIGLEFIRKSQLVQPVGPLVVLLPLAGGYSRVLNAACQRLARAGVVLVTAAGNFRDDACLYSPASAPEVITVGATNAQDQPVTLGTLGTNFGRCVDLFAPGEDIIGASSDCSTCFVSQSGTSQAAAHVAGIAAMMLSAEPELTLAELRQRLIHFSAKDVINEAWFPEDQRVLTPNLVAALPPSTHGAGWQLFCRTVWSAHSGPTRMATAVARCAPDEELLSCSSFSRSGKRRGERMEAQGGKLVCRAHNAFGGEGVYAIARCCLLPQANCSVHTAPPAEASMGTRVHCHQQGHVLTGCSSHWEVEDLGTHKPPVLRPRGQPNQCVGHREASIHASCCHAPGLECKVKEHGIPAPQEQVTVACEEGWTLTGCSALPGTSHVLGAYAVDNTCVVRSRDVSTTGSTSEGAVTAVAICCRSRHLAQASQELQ

Turning to Ac-TVFTSWEEYLDWVGSGKLWNLGR-NH2 [Compound 4], the values for the IC50 (with PCSK9Δhelix [1]; in experiment [2]) were 1.52 µM and 0.49 µM, respectively.
In the case of Ac-TVFTSWEEYLDWVGSGCWNLGRIGSQGC-NH2 (disulfide 17-28 (inferred), Two Cys, disulfide-cyclized) [Compound 11], the IC50 (commonly the concentration needed to halve the response being measured) in experiment [3] worked out at 0.34 µM.

B1: Compound 97 (peptide)
peptide: Ac-GSGCWNL[Dap]RIGSQGC-NH2
modifications: disulfide 4-15
SMILES: CC[C@H](C)[C@@H]1NC(=O)[C@H](CCCNC(=N)N)NC(=O)[C@H](CN)NC(=O)[C@H](CC(C)C)NC(=O)[C@H](CC(N)=O)NC(=O)[C@H](Cc2c[nH]c3ccccc23)NC(=O)[C@@H](NC(=O)CNC(=O)[C@H](CO)NC(=O)CNC(C)=O)CSSC[C@@H](C(N)=O)NC(=O)CNC(=O)[C@H](CCC(N)=O)NC(=O)[C@H](CO)NC(=O)CNC1=O
notes: Two Cys, disulfide-cyclized; also called Ac-GSG-CWNL(Dpr)RIGSQGC-NH2
Regarding B1, the figures for the Kd (with PCSK9Δhelix [4]; in experiment [5]) were 89.2 µM and 522 µM, respectively.
For the molecule Ac-WNLVRIGLLR-NH2 [Compound 53], the IC50 was 33.1 µM with PCSK9Δhelix [6] and more than 50 µM in [7]. In addition, the Kd (commonly the equilibrium constant for the complex coming apart) with PCSK9Δhelix [4] is 33.8 µM; in [5], 223 µM.
Regarding SGRCLNHLISGNMNSC [SEQ ID NO 387], in [8], the ELISA was found to be 2.62 and the s/n ratio was 17.5. In addition, in the experiment with PCSK9Δhelix [9], the ELISA stood at 2.88 and the s/n ratio is 20.7.
Turning to SGCFIPWNLQRIGLLC (not fully specified (C-terminus, bridges); cysteine pairing not given here) [SEQ ID NO 383], in experiment [8], the ELISA came out at 3 and the s/n ratio was found to be 8.11. In addition, in the experiment with PCSK9Δhelix [9], the ELISA came out at 3.07 and the s/n ratio is 8.48.
As for SGGACPWNLERIGLSC [SEQ ID NO 384], in experiment [8], the ELISA is 1.42 and the s/n ratio is 9.77. In the experiment with PCSK9Δhelix [9], the ELISA worked out at 1.94 and the s/n ratio came to 12.3.
Consider Ac-PWNLVRIGLLR-NH2 [Compound 52], for which the IC50 with PCSK9Δhelix [6] was 10.2 µM; in [7], more than 50 µM. Moreover, the Kd in the experiment with PCSK9Δhelix [4] was 2.6 µM; in experiment [5] it was 17.9 µM.
In the case of Ac-TVFTSWEEYLDWVGSGKLWNL-NH2 [Compound 6], the IC50 is 10 µM in the experiment with PCSK9Δhelix [1] and 0.74 µM in experiment [2].
With Ac-LMPWNLVRIGLLR-NH2 [Compound 50], the values for the IC50 (with PCSK9Δhelix [6]; in experiment [7]) were 2.66 µM and more than 50 µM, respectively. The Kd turned out to be 1.6 µM with PCSK9Δhelix [4] and 16.1 µM in [5].
SGACVKPCIAGNIIR [SEQ ID NO 388]: in experiment [8], the ELISA was determined as 1.25 and the s/n ratio stood at 9.44. For the same molecule, in the experiment with PCSK9Δhelix [9], the ELISA was determined as 2.09 and the s/n ratio was 18.2.
For the molecule Ac-ALMPWNLVRIGLLR-NH2 [Compound 45], the IC50 with PCSK9Δhelix [6] was 2.02 µM; in [7] it was more than 50 µM. Moreover, the Kd with PCSK9Δhelix [4] was 8.2 µM; in experiment [5], 117 µM.
Take Ac-DLMPWNLVRIGLAR-NH2 [Compound 55]: the IC50 was 9.7 µM in the experiment with PCSK9Δhelix [6] and more than 50 µM in experiment [7]. Besides, the Kd in the experiment with PCSK9Δhelix [4] came to 2.8 µM; in [5], 96.5 µM.
For SGDLMPWNLVRIGLLR [SEQ ID NO 389], in experiment [8], the ELISA was 3.16 and the s/n ratio amounted to 16.5. In addition, in the experiment with PCSK9Δhelix [9], the ELISA was determined as 3.23 and the s/n ratio came to 14.7.
Take SGDFIPWNLVRIGLLR [SEQ ID NO 385]: in experiment [8], the ELISA was found to be 0.472 and the s/n ratio stood at 3.42.
For SGCSDLWNLARIYPMC [SEQ ID NO 391], in experiment [8], the ELISA was 0.514 and the s/n ratio turned out to be 3.59. In addition, in the experiment with PCSK9Δhelix [9], the ELISA was determined as 2.21 and the s/n ratio amounted to 15.1.
For 5FAM-SGSGCFIPWNLQRIGLLC-NH2 (disulfide 5-18 (inferred), Two Cys, disulfide-cyclized) [Compound 33], the Kd with PCSK9Δhelix [4] was found to be 10 µM; in experiment [5] it was 6.01 µM.
Take Ac-TVFTSWEEYLDWVGSGKLWN-NH2 [Compound 7]: the IC50 with PCSK9Δhelix [1] amounted to 18.6 µM; in [2] it was 0.5 µM.
The like results for Ac-TVFTSWEEYLDWVGSGKLWNLG-NH2 [Compound 5] were, in that order, 11.1 µM and 0.72 µM.
For the molecule Ac-TVFTSWEEYLDWVGSGKLWNLGRV-NH2 [Compound 1], the IC50 was found to be 0.021 µM with PCSK9Δhelix [1] and 0.388 µM in experiment [2].
Consider SGGSMPWNLERIFALH [SEQ ID NO 390], for which, in [8], the ELISA amounted to 2.74 and the s/n ratio was 15.8. Further, in the experiment with PCSK9Δhelix [9], the ELISA was found to be 3.19 and the s/n ratio was 21.3.
Take Ac-FCLWNLKRIGAQCWF-NH2 (disulfide 2-13 (inferred), Two Cys, disulfide-cyclized) [Compound 96]: the Kd in the experiment with PCSK9Δhelix [4] is 2.5 µM; in [5], 46.4 µM.
As to Ac-CRL[Ach]WNLQRIGLPC-NH2 (disulfide 1-14 (inferred), Two Cys, disulfide-cyclized) [Compound 82], the Kd in the experiment with PCSK9Δhelix [4] came to 6.4 µM; in experiment [5] it was 118 µM.
The like results for Ac-CFIPWNLQRIGLLC-NH2 (disulfide 1-14 (inferred), Two Cys, disulfide-cyclized) [Compound 31] were, in that order, 3.01 µM and 5.83 µM.
Regarding 5FAM-SGSGCRLPWNLQRIGLPC-NH2 (disulfide 5-18 (inferred), Two Cys, disulfide-cyclized) [Compound 34], the Kd amounted to 5.28 µM in the experiment with PCSK9Δhelix [4] and 4.47 µM in experiment [5].
With Ac-CRLPWNLQRIGLPC-NH2 (disulfide 1-14 (inferred), Two Cys, disulfide-cyclized) [Compound 32], the Kd with PCSK9Δhelix [4] worked out at 0.21 µM; in [5], 1.3 µM.
Take Ac-CRLPWNLARIGLPC-NH2 (disulfide 1-14 (inferred), Two Cys, disulfide-cyclized) [Compound 73]: the Kd in the experiment with PCSK9Δhelix [4] was found to be 0.167 µM; in experiment [5], 11 µM.
For Ac-MPWNLVRIGLLR-NH2 [Compound 51], the IC50 is 4.69 µM in the experiment with PCSK9Δhelix [6] and more than 50 µM in experiment [7]. For the same molecule, the values for the Kd (with PCSK9Δhelix [4]; in experiment [5]) were 2.7 µM and 26.2 µM, respectively.
Consider Ac-TVFTSWEEYLDWVGGSGKLWNLGRV-NH2 [Compound 8], for which the IC50 in the experiment with PCSK9Δhelix [1] came out at 0.049 µM; in [2], 1.03 µM.
As to Ac-TVFTSWEEYLDWVGSGGKLWNLGRV-NH2 [Compound 9], the IC50 with PCSK9Δhelix [1] was 0.065 µM; in [2] it was 0.39 µM.

B2: Compound 118 (peptide)
peptide: Pentanoyl-WNLV[hArg]IGLTR-NH2
SMILES: CCCCC(=O)N[C@@H](Cc1c[nH]c2ccccc12)C(=O)N[C@@H](CC(N)=O)C(=O)N[C@@H](CC(C)C)C(=O)N[C@H](C(=O)N[C@@H](CCCCNC(=N)N)C(=O)N[C@H](C(=O)NCC(=O)N[C@@H](CC(C)C)C(=O)N[C@H](C(=O)N[C@@H](CCCNC(=N)N)C(N)=O)[C@@H](C)O)[C@@H](C)CC)C(C)C
notes: also called n-BuC(O)-WNLV(homoR)IGLTR-NH2
Take B2: the values for the concentration for half-maximal inhibition (IC50) (with PCSK9Δhelix [6]; in experiment [7]) were 1.4 µM and more than 50 µM, respectively.

For the origin of these results see patent US20200283478A1 (Genentech, published 2020).
